Measurements reported in the RNAGym collection of RNA variant scans (doi:10.1073/pnas.2313332121).

B1: TPR t1 (parent)
chain: GACCAAUCUGCCCUCAGAGCUCGAGAACAUCUUCGGAUGCAGAGGAGGCAGGCUUCGGUGGCGCGAUAGCGCCAACGUCCUCAACCUCCAAUGCAUCCCACCACAUGAUGAUGCCUGAAGAGCCUUGGUUUUUUG

Variants of: B1
Assay: polymerase ribozyme fitness, log enrichment relative to wild type (log ratio); higher = more active; in vitro selection for triplet polymerase activity
In short: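 Frozen incubation at −7 °C formed the core of a single, triplicate in vitro selection round applied to PCR-built, transcribed mutant libraries of each subunit of a heterodimeric triplet polymerase ribozyme. Extended constructs were gel-excised, captured with streptavidin beads and amplified by RT-PCR, and input and output libraries were Illumina-sequenced with a filter of ≥10 input reads and ≥1 read per output. Fitness is the logarithm of genotype enrichment relative to wild-type enrichment, with inverse-variance-weighted replicate averaging, and the logarithm is base 2.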

Point of comparison: G61U A84C, “polymerase ribozyme fitness (log ratio)” value 0.447. Against it:
- G61A C79U C115A G120A — lower, -0.74
- G61A U78A — lower, -0.223
- G61A U78G — lower, -0.87
- G60U A91C G93U C104A G117U — lower, -6
- G60U C70A C114U — lower, -7.08
- G61U A83U A91C U96A — lower, -1.27
- G61C A90C U126A — lower, -4.32
- G61C U133A — lower, -1.7
- G60U A103C U106G U125A — lower, -5.2
- G61U G122A — lower, -0.264
- G61C C79U — lower, -1.46
- G60U A91G C123U — lower, -0.372
- G61A C89G G93A — lower, -2.18
- G61U C89G A91U C124U — lower, -0.422
- G61C C79G U92A G117U — lower, -6.69
- G61U C73U G93U — lower, -2.38
- G61U A66C U92C — lower, -2.21
- G61U A66C U92A — lower, -4.97
- G61A A74C U112A — lower, -2.06
- G61C U92A — lower, -4.11
- G61A C73U C76U — lower, -3.66
- G61C A66C — lower, -2.87
- G60U G93U — lower, -1.03
- G61A U78C C88G — lower, -0.472
- G61C U96A — lower, -2.71
- G61A G122U — lower, 0.115
- G61A G122A — lower, -0.219
- G60U G107A — lower, -3.31
- G61C C123U — lower, -0.994
- G61C G122A G128U G135U — lower, -3.92
- G61C G113C — lower, -3.19
- G61C G113A — lower, -2.26
- G61A C88A — lower, -0.575
- G61C G120U — lower, -1.08
- G61C G107U — lower, -7.35
- G61U G63U — lower, -4.98
- G61U G63C — lower, -3.05
- G61A U116C — lower, -0.278
- G61A U116G — lower, -3.01
- G61U C80A C101A — lower, -4.47
- G61A C73A — lower, -0.202
- G61C C124A — lower, -0.457
- G61U C79A C102U — lower, -3.26
- G61A C115U — lower, -0.993
- G61A C115A — within 0.2 log units, 0.519
- G61A U130A — lower, 0.0628
- G61A U130G — lower, -0.92
- G60U A103G U112G — lower, -6.67
- G61A A83U A90G — lower, 0.0238
- G61A A105G — lower, -1.89
- G60U U130A — lower, -0.92
- G60U U130G — lower, -0.482
- G60U A111C G122C — lower, -0.82
- G60U U132C — lower, -0.354
- G61C G122A U126C G135U — lower, -4.38
- G61A A121C — higher, 1.95
- G60U C89G C101U U112A C115U — lower, -4.63
- G61C C101A — lower, -2.74
- G61C C101G — lower, -3.98
- G61C C64A C94G G113C C124A — lower, -6.83
- G61U A74U G127U — lower, -4.02
- G61U G65A — lower, -4.98
- G61U C115A — within 0.2 log units, 0.264
- G61U C115U — lower, -0.433
- G61A G71A — lower, -2.39
- G61U C102A — lower, -2.05
- G60U U106A — lower, -0.529
- G61A U81G — lower, -3.89
- G60U A84G C86U G135C — lower, -0.459
- G61C U78C — lower, -2
- G60U G63U — lower, -4.69
- G60U G63A — lower, -4.69
- G60U G113U — lower, -2.04
- G60U G113A — lower, -0.847
- G61A C82G A105C — lower, -2.79
- G60U C98G — lower, -5.35
- G61U A74C C123G — lower, -5.28
- G61U C85G — lower, -2.33
- G61A A83U G117C — lower, -4.17
- G60U G93A A105C — lower, -3.53
- G61A C62G A75G A95U A121C — lower, -5.37
- G61C U78G A111U U131A — lower, -5.71
- G60U C85A C101U — lower, -0.366
- G61U C124U — higher, 1.52
- G61U C85G C97U — lower, -3.66
- G60U U129A — lower, -1.37
- G61C A103C U130G — lower, -6.98
- G61A C99U G113C — lower, -5.29
- G61U A75C — lower, -0.117
- G61U C104A — lower, -1.7
- G60U C73U U106A — lower, -0.452
- G60U C80A — lower, -3.33
- G61C C79G C86U — lower, -1.95
- G61A G77C U96A — lower, -1.55
- G60U U78C A90C G117U — lower, -4.13
- G61A U129A — lower, -1.11
- G61A U129G — lower, -1.24
- G61C A91G U112C G122A — lower, -3.24
- G61A U78C C80U — lower, -5.11
- G61A A84U — lower, -0.89
- G61A A91C U96A — lower, -1.49
- G61C C80U G120U — lower, -7.22
- G61C G128C — lower, -4.34
- G61A G93U A111G — lower, 0.181
- G61A C88A G120C A121U — within 0.2 log units, 0.393
- G60U U78G C79A G110A U126C — lower, -4.68
- G61A G110U — lower, -0.817
- G61A G110C — lower, -3.29
- G60U C114A G127C — lower, -2.37
- G61A C80G U109A G113U U133G — lower, -5.53
- G61U C97G — lower, -4.15
- G61C G110A — lower, -3.32
- G61C G110C — lower, -5.94
- G61C C115G — lower, -4.37
- G61A C88U G113A G128U — lower, -2.99
- G61A G120U G135U — lower, -0.818
- G60U G127A — lower, -0.768
- G61A C73U U78A C114A — lower, -2.49
- G61C A66U A121G — lower, -0.122
- G61A C124U — higher, 1.51
- G60U C62U — lower, -0.758
- G61C C62G G63C U112A — lower, -4.63
- G61U G113A — lower, -0.951
- G60U A103U — lower, -4.99
- G61A U87C U126G — lower, -1.59
- G61U C101G U106A — within 0.2 log units, 0.513
- G61A G63U — lower, -3.75
- G61U A100C U133G — lower, -1.29
- G61C C80G — lower, -4.64
- G61C C80U — lower, -5.08
- G61U U78A — lower, 0.0643
- G60U C80U U106G U129G — lower, -6.15
- G60U C94U G110C — lower, -4.16
- G61A A95U — within 0.2 log units, 0.338
- G61A U78A U126G — lower, -2.02
- G61U C82U — lower, -0.605
- G61C G77C C79U — lower, -0.228
- G60U C86A — lower, -0.471
- G61A G135U — lower, -0.801
- G61C A75G U81G — lower, -4.25
- G61U C101A — lower, -1.33
- G61U C101U — lower, 0.0554
- G61C C102U G122A C124A — lower, -3.47
- G61A G93A — lower, -0.586
- G61A G93C — lower, -0.381
- G60U A111U — lower, -2.87
- G60U A111G — within 0.2 log units, 0.488
- G61U C85G G127C — lower, -2.41
- G60U C89U U106A — lower, -0.38
- G61C U87A G110C — lower, -5.84
- G60U A75U G117C — lower, -3.72
- G61C C72A C101A G120U C123A — lower, -0.675
- G61U G110A — lower, -0.469
- G60U C72U A111U — lower, -2.86
- G61A C101A — lower, -0.787
- G61A C101G — lower, -1.59
- G60U — lower, 0.0514
- G61U A95G C124U — higher, 1.97
- G61A C82U — lower, 0.141
- G61A C82A — lower, -0.883
- G61A C82G — lower, -1.29
- G61A C72G — lower, 0.08
- G60U G110C C123U — lower, -5.58
- G61C C99U A111C — lower, -5.26
- G60U C97A C123U — lower, -2.62
- G61C G71U — lower, -3.13
